Among the data in paper PMC10786891, “Massively parallel profiling of RNA-targeting CRISPR-Cas13d” are Kd values, retold here.

T1: EsCas13d, nuclease-dead (Eubacterium siraeum, UniProt B0MS50, R295A;H300A;R849A;H854A)
T1 sequence: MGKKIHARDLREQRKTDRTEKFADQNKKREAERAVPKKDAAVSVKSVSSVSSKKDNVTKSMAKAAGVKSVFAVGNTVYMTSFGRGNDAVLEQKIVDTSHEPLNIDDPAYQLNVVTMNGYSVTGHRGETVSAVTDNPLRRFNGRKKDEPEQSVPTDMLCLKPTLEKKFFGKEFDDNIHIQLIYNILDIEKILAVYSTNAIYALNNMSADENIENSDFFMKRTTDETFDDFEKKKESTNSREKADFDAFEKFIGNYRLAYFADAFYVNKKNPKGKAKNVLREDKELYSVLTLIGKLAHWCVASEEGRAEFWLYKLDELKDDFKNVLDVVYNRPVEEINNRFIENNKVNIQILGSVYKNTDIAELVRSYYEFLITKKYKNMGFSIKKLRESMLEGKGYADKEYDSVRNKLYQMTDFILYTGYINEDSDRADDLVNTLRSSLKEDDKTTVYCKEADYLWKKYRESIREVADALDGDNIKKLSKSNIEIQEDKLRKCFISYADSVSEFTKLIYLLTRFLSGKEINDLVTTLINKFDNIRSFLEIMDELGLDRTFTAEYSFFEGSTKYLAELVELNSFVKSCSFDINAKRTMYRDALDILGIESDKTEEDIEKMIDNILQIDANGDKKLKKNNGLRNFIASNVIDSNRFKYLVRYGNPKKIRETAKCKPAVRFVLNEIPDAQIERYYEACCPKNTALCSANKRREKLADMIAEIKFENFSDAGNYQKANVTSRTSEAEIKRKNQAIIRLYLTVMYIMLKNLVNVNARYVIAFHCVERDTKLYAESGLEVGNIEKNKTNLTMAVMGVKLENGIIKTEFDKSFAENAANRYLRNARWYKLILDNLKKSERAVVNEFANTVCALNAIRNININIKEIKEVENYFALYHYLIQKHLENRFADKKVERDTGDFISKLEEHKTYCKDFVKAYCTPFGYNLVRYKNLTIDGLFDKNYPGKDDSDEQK

B1: target 1 C7A,U10A (mixed)
RNA 1: CACCCGUGCAAAAAUGCAGGGGUCUAAAACUGAGCGGAUAACCUCUCUAUGG
RNA 2: GGGAAUGGAUCCACAUCUACGAAUUCGUACCAUAGAGAGGUAAUACGCUCACCGAGAUCGGAAGAGCACACGU
B2: target 1 insA 3' of 15,insA 3' of 8 (mixed)
RNA 1: B1 RNA 1
RNA 2: GGGAAUGGAUCCACAUCUACGAAUUCGUACCAUAGAGAAGGUUAUACCGCUCACCGAGAUCGGAAGAGCACACGU
B3: target 1 insG 3' of 20,insA 3' of 19 (mixed)
RNA 1: B1 RNA 1
RNA 2: B2 RNA 2 with U33G, A34U, G35A, A39G, G40A, U42G, A44U, U45A, A46U
B4: target 1 G5A,A9U (mixed)
RNA 1: B1 RNA 1
RNA 2: B1 RNA 2 with A42U, A43U, A45C, G47A
B5: target 1 G15C,C21U (mixed)
RNA 1: B1 RNA 1
RNA 2: B1 RNA 2 with C31U, G37C, A42U, A45C
B6: target 1 C6U,U19G (mixed)
RNA 1: B1 RNA 1
RNA 2: B1 RNA 2 with U33G, A42U, A45C, C46U
B7: target 1 C2G,G5A (mixed)
RNA 1: B1 RNA 1
RNA 2: B1 RNA 2 with A42U, A45C, G47A, C50G
B8: target 1 insC 3' of 18,insA 3' of 3 (mixed)
RNA 1: B1 RNA 1
RNA 2: B2 RNA 2 with G35C, A36G, G37A, A38G, A46C, C48G, G49C, C50U, U51A
B9: target 1 G5C,G15A (mixed)
RNA 1: B1 RNA 1
RNA 2: B1 RNA 2 with G37A, A42U, A45C, G47C
B10: target 1 C4A,A18C (mixed)
RNA 1: B1 RNA 1
RNA 2: B1 RNA 2 with A34C, A42U, A45C, C48A
B11: target 1 U11G,G17U (mixed)
RNA 1: B1 RNA 1
RNA 2: B1 RNA 2 with G35U, U41G, A42U, A45C
B12: target 1 insG 3' of 8,insA 3' of 3 (mixed)
RNA 1: B1 RNA 1
RNA 2: GGGAAUGGAUCCACAUCUACGAAUUCGUACCAUAGAGAGGUUAUGCCGCUACACCGAGAUCGGAAGAGCACACGU
B13: target 1 insA 3' of 11,insU 3' of 5 (mixed)
RNA 1: B1 RNA 1
RNA 2: B2 RNA 2 with A39G, G41U, U42A, A46C, C48G, G49U
B14: target 1 A1C,C4U (mixed)
RNA 1: B1 RNA 1
RNA 2: B1 RNA 2 with A42U, A45C, C48U, A51C
B15: target 1 insA 3' of 19,insU 3' of 4 (mixed)
RNA 1: B1 RNA 1
RNA 2: B2 RNA 2 with G35A, A36G, G37A, A38G, A46C, C48G, G49C, C50U
B16: target 1 insU 3' of 9,insC 3' of 3 (mixed)
RNA 1: B1 RNA 1
RNA 2: B12 RNA 2 with G45U, A51C
B17: target 1 G5A,U8C (mixed)
RNA 1: B1 RNA 1
RNA 2: B1 RNA 2 with A42U, U44C, A45C, G47A
B18: target 1 insU 3' of 20,insG 3' of 18 (mixed)
RNA 1: B1 RNA 1
RNA 2: B2 RNA 2 with A34U, G35A, A36G, A39G, G40A, U42G, A44U, U45A, A46U
B19: target 1 insU 3' of 14,insA 3' of 11 (mixed)
RNA 1: B1 RNA 1
RNA 2: B2 RNA 2 with A39U, U43A, A44U, U45A, A46U
B20: target 1 insG 3' of 9,insG 3' of 9 (mixed)
RNA 1: B1 RNA 1
RNA 2: B2 RNA 2 with A39G, G41U, U43A, A44G, U45G, A46U
B21: target 1 C2G,A16G (mixed)
RNA 1: B1 RNA 1
RNA 2: B1 RNA 2 with A36G, A42U, A45C, C50G
B22: target 1 A1C,A9G (mixed)
RNA 1: B1 RNA 1
RNA 2: B1 RNA 2 with A42U, A43G, A45C, A51C
B23: target 1 insG 3' of 10 (mixed)
RNA 1: B1 RNA 1
RNA 2: GGGAAUGGAUCCACAUCUACGAAUUCGUACCAUAGAGAGGUUGAUCCGCUCACCGAGAUCGGAAGAGCACACGU
B24: target 1 A1G,A9G (mixed)
RNA 1: B1 RNA 1
RNA 2: B1 RNA 2 with A42U, A43G, A45C, A51G
B25: target 1 insG 3' of 20,insA 3' of 8 (mixed)
RNA 1: B1 RNA 1
RNA 2: B2 RNA 2 with U33G, A34U, G35A, A36G, G37A, A38G
B26: target 1 G13A,C21A (mixed)
RNA 1: B1 RNA 1
RNA 2: B1 RNA 2 with C31A, G39A, A42U, A45C
B27: target 1 A1G,C4U (mixed)
RNA 1: B1 RNA 1
RNA 2: B1 RNA 2 with A42U, A45C, C48U, A51G
B28: target 1 del14,del16 (mixed)
RNA 1: B1 RNA 1
RNA 2: GGGAAUGGAUCCACAUCUACGAAUUCGUACCAUAGGGGUUAUCCGCUCACCGAGAUCGGAAGAGCACACGU
B29: target 1 insA 3' of 22,insG 3' of 16 (mixed)
RNA 1: B1 RNA 1
RNA 2: GGGAAUGGAUCCACAUCUACGAAUUCGUACACAUAGAGGAGGUUAUCCGCUCACCGAGAUCGGAAGAGCACACGU
B30: target 1 insU 3' of 21,insA 3' of 21 (mixed)
RNA 1: B1 RNA 1
RNA 2: B29 RNA 2 with A31C, C32U, U34A, A35U, G36A, A37G, G38A
B31: target 1 complement block 2-14 (mixed)
RNA 1: B1 RNA 1
RNA 2: GGGAAUGGAUCCACAUCUACGAAUUCGUACCAUAGAGUCCAAUAGGCGAGACCGAGAUCGGAAGAGCACACGU
B32: target 1 insA 3' of 19 (mixed)
RNA 1: B1 RNA 1
RNA 2: B23 RNA 2 with G35A, A36G, G37A, A38G, G39A, U41G, G43U

Numbering of substitutions follows the chain as printed. Names and notes keep the numbering of the source.

This data set has as its target T1, EsCas13d, nuclease-dead. As to the kind of experiment: crRNA (strand 1, pre-loaded); Mg2+; 40 mM Tris-HCl pH 7.5, 150 mM NaCl, 6 mM MgCl2, 1 mM DTT, 0.1% Tween-20, 0.2 mg/ml BSA; 25 C; 10 min per concentration, then washed. Conditions: tags: His6-TwinStrep-SUMO cleaved; N-terminal SNAP kept (SNAP-Surface 488); label: 3' end held by stalled T7 RNA polymerase.
By Kd is commonly meant the constant that tells how readily two partners part at equilibrium. The molecule B1 yielded a Kd of 8.48 ± 0.31 nM.

Turning to B2, the Kd came out at 7.4 ± 0.4 nM.

B3 gave a Kd of 45 ± 7 nM.

The molecule B4 displayed a Kd of 29.7 ± 1.8 nM. This Kd is about 1.5-fold lower than that of the molecule before.

B5: binding was put at a Kd of 9.4 ± 0.7 nM. Compared with the last molecule, the Kd is about 3.2-fold lower.

B6: the Kd is 48 ± 11 nM.

B7 yielded a Kd of 35 ± 5 nM.

In turn, B8 had a Kd of 23.9 ± 1.2 nM. This Kd and that of the molecule before are within 1.5-fold of each other.

Molecule B9 yielded a Kd of 19.9 ± 1.8 nM.

In turn, B10 gave a Kd of 63 ± 22 nM.

As to B11, the Kd amounted to 47 ± 5 nM.

B12 returned a Kd of 8.3 ± 0.5 nM.

Regarding B13, the Kd stood at 18.7 ± 1.5 nM.

B14 returned a Kd of 9.8 ± 1.2 nM.

Consider B15, for which the Kd came out at 17.9 ± 0.9 nM.

As to B16, the Kd came to 16.3 ± 1.1 nM.

The molecule B17 showed a dissociation constant (Kd) of 15.3 ± 0.7 nM.

In the case of B18, the Kd was found to be 99 ± 21 nM.

B19 returned an equilibrium dissociation constant (Kd) of 54 ± 10 nM.

Regarding B20, the dissociation constant (Kd) is 16.2 ± 0.9 nM.

Molecule B21 registered a Kd of 33.1 ± 1.6 nM.

In turn, B22 registered a Kd of 21.2 ± 3.4 nM.

As for B23, binding was characterised by a dissociation constant (Kd) of 23 ± 1.7 nM.

For the molecule B24, binding was put at a Kd of 12.6 ± 0.5 nM.

Turning to B25, binding was characterised by a dissociation constant (Kd) of 60 ± 7 nM.

As to B26, binding was put at a Kd of 35 ± 4 nM. Compared with the last molecule, the Kd is about 1.7-fold lower.

As for B27, binding was characterised by a dissociation constant (Kd) of 31 ± 5 nM.

For B28, binding was put at a Kd of 84 ± 17 nM.

B29 came in with a Kd of 26.3 ± 2.6 nM.

Molecule B30 yielded an equilibrium dissociation constant (Kd) of 22.4 ± 3.3 nM.

Molecule B31 came in with a Kd of 71 ± 17 nM.

On to B32, for which binding was characterised by a dissociation constant (Kd) of 15.9 ± 0.7 nM.
